A short description of data set [1]: folding stability dG unfold from chymotrypsin proteolysis; higher = more stable. The method, boiled down:
(§1)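 Bayesian fitting of sequencing counts gave K50 for each design. Unfolding free energy followed by setting this against a sequence-predicted unfolded-state K50 and a shared folded-state K50, either per protease or with trypsin and chymotrypsin combined. The designs, under 80 residues and lacking cysteine, were digested in a PA-tagged cDNA display format at 11 threefold-diluted protease concentrations and without protease, and only those with AlphaFold2 dimer inter-PAE above 15 were kept.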

A short description of data set [2]: folding stability dG unfold (combined trypsin and chymotrypsin); higher = more stable. The method, boiled down:
as §1

The nature of data set [3]: folding stability dG unfold from trypsin proteolysis; higher = more stable. In a few lines:
as §1

Data on 18 sequences can be found in the supplement of paper PMC12764529.

± gives the half width of the 95% confidence interval.

Turning to “SAGGSAGGSPVLIPVKTPEEIKKFLEKASSDAKFKVFNNKGEWKEVSKNEISVTPEEQFILVYSAGGSAGGS [r12_907_TrMRF]”, the “folding stability dG unfold” value was 0.662 ± 0.14 kcal/mol in data set [1], 0.578 ± 0.068 kcal/mol in data set [2] and 0.437 ± 0.048 kcal/mol in data set [3].
For the sequence “SAGGSAGGSPVLLAESVTTLPDGTVVRTRLVRLPDGTYLRETETYPPGGAPARAVERFDDPRLASAGGSAGG [r6_299_JUSTAS]”, the “folding stability dG unfold” value was found to be 3.505 ± 0.023 kcal/mol in data set [1], 3.07 ± 0.059 kcal/mol in data set [2] and 1.66 ± 0.039 kcal/mol in data set [3].
For “SAGGSAGGSPVPVKVEKKPTKENKELIITYYPDGKVRVTTYTYDENGNKISEKEEIIPKSEVKLSAGGSAGG [r6_579_JUSTAS]” the same measures were 1.58 ± 0.032 kcal/mol, 1.37 ± 0.061 kcal/mol and 0.81 ± 0.032 kcal/mol.
On to “SAGGSAGGSPVPVKVVVKLPSSDKTIELTLYPPDVSPDSVVTVDLGGPAIDVKLLPGDVLELSPSAGGSAGG [r6_461_JUSTAS]”, for which the entries for the “folding stability dG unfold” value in data set [1], in data set [2] and in data set [3] were 0.524 ± 0.039 kcal/mol, 0.323 ± 0.097 kcal/mol and 0.114 ± 0.034 kcal/mol, respectively.
Take “SAGGSAGGSPVVAIRAKSREELLAALEALLPPGQKLTPEQRQQLVDTLLANLDVKPGDTILVRSAGGSAGGS [r12_983_TrROS_Hall]”: the results for the “folding stability dG unfold” value in data set [1], in data set [2] and in data set [3] were 0.921 ± 0.034 kcal/mol, 0.992 ± 0.12 kcal/mol and 1.07 ± 0.064 kcal/mol, respectively.
As for “SAGGSAGGSPVVLYEVDPSTNSVTLTVEVLHPDGTPLRKEYTTNGDPLEAALRFAKAVLEEAGSAGGSAGGS [r20_33_TrMRF]”, the “folding stability dG unfold” value was 0.813 ± 0.17 kcal/mol in data set [1], 0.699 ± 0.12 kcal/mol in data set [2] and 0.407 ± 0.21 kcal/mol in data set [3].
As for “SAGGSAGGSSGMVKAEFGLVAPDGTPVSTRTLTFSSEEEIEEALAALPEFSLALVPDVKRGPLSAGGSAGGS [r12_182_JUSTAS]”, the “folding stability dG unfold” value in data set [1] was 0.86 ± 0.13 kcal/mol; in data set [2] it was 0.51 ± 0.14 kcal/mol; in data set [3] it was -0.586 ± 0.38 kcal/mol.
As to “SAGGSAGGSSKNGKPKPTIKVEMPDKPGPHEIPIPESDPDEAKTLAEELAQKWPGVPVRIEPTSAGGSAGGS [r12_601_TrROS]”, the “folding stability dG unfold” value was 0.989 ± 0.057 kcal/mol in data set [1], 0.582 ± 0.13 kcal/mol in data set [2] and -0.293 ± 0.1 kcal/mol in data set [3].
Consider “SAGGSAGGSSKYIKFIIPANSPEAIEKAKELAEFIKKKYPGIKKIEVKYNPEKGYLEVIAEVESAGGSAGGS [r12_248_TrMRF]”, for which the “folding stability dG unfold” value in data set [1] turned out to be 3.87 ± 0.048 kcal/mol; in data set [2], 3.96 ± 0.17 kcal/mol; in data set [3], 4.08 ± 0.28 kcal/mol.
On to “SAGGSAGGSSLEEIAKKLGLKPGMRVRLSDGKVLEVPSLDDLKAALEAGLSLEELKKIEIEPVSAGGSAGGS [r12_430_TrROS_Hall]”, for which the “folding stability dG unfold” value worked out at 1.68 ± 0.04 kcal/mol in data set [1], 1.42 ± 0.12 kcal/mol in data set [2] and 1.13 ± 0.023 kcal/mol in data set [3].
Consider “SAGGSAGGSSLKPGQELELTLTLRVEVEVEVYENGKPVERYRVEREVRLTLRLKLPAASLEDLSAGGSAGGS [r20_14_TrROS_Hall]”, for which the results for the “folding stability dG unfold” value in data set [1], in data set [2] and in data set [3] were 5.73 ± 0.21 kcal/mol, 5.55 ± 0.15 kcal/mol and 4.06 ± 0.14 kcal/mol, respectively.
Consider “SAGGSAGGSSLTLRLRLRLRVRVLDEETGELSEFEVEVELELRFEPAPPPPPPPLVLRDGKLVSAGGSAGGS [r12_140_TrROS_Hall]”, for which the “folding stability dG unfold” value in data set [1] was found to be 4.53 ± 0.18 kcal/mol; in data set [2], 4.34 ± 0.34 kcal/mol; in data set [3] it was 3.43 ± 0.15 kcal/mol.
Turning to “SAGGSAGGSSMPTMTKVGDTWLYYDPSTDIKRPATVTVDDGKITIDGDSGTTVYDGDLVIETSSAGGSAGGS [r12_683_JUSTAS]”, the “folding stability dG unfold” value in data set [1] is -0.313 ± 0.13 kcal/mol; in data set [2], 0.149 ± 0.1 kcal/mol; in data set [3], 0.389 ± 0.057 kcal/mol.
For “SAGGSAGGSSMTFEVVEIERPPGDEIRVLVKREDGREFAEITLPPGASPEEIERAVREAVEAESAGGSAGGS [r12_798_JUSTAS]”, the “folding stability dG unfold” value is 1.55 ± 0.057 kcal/mol in data set [1], 1.26 ± 0.28 kcal/mol in data set [2] and 0.707 ± 0.07 kcal/mol in data set [3].
For the sequence “SAGGSAGGSSMTFISTSTSPGNGYTYNIYSQPGKVVVTTTAPDGTVSVTTVEVSPDTSVTVTAASAGGSAGG [r6_380_JUSTAS]”, the “folding stability dG unfold” value in data set [1] came to 1.36 ± 0.12 kcal/mol; in data set [2], 1.3 ± 0.085 kcal/mol; in data set [3], 1.16 ± 0.045 kcal/mol.
For “SAGGSAGGSSPEENLETQVETELLEEFKPGDKPRKLVKTTVTYPDGTTKEEIVTIDENGNILLSAGGSAGGS [r12_755_JUSTAS]” the same measures were -0.117 ± 0.065 kcal/mol, -0.0945 ± 0.1 kcal/mol and -0.206 ± 0.049 kcal/mol.
As to “SAGGSAGGSSPITIPIPLSELSEETLKKIAEENPEGETPIKIIKPDGTPVTIVVKPGGEIIGASAGGSAGGS [r12_1054_JUSTAS]”, the figures for the “folding stability dG unfold” value in data set [1], in data set [2] and in data set [3] were 1.09 ± 0.068 kcal/mol, 1.01 ± 0.075 kcal/mol and 0.728 ± 0.046 kcal/mol, respectively.
“SAGGSAGGSSPPVTVIPLKIPVDPDTTPEEIKEELAAKVPPNSSVKVDTKPGSGTVNVTVTISSAGGSAGGS [r12_12_JUSTAS]”: the “folding stability dG unfold” value is -0.14 ± 0.11 kcal/mol in data set [1], 0.753 ± 0.14 kcal/mol in data set [2] and 1.12 ± 0.061 kcal/mol in data set [3].
